Assay [1] addresses T1, DIM2 (Defective-In-Methylation-2) N-terminal fragment, residues 1-1242, wild type (Neurospora crassa, UniProt Q3Y3Z1 1-1242).
T1 construct: In the DIM2-HP1-H3K9me3-DNA complex C926 is covalently linked to zebularine of the DNA; also called WT DIM2; apo-DIM2; source: E. coli BL21 (DE3) RIL, purified (Ni-NTA, heparin, TEV cleavage, second Ni-NTA, SEC); not shown: His6, N-terminal, cleaved; MBP, N-terminal, cleaved
T1 sequence (looked up): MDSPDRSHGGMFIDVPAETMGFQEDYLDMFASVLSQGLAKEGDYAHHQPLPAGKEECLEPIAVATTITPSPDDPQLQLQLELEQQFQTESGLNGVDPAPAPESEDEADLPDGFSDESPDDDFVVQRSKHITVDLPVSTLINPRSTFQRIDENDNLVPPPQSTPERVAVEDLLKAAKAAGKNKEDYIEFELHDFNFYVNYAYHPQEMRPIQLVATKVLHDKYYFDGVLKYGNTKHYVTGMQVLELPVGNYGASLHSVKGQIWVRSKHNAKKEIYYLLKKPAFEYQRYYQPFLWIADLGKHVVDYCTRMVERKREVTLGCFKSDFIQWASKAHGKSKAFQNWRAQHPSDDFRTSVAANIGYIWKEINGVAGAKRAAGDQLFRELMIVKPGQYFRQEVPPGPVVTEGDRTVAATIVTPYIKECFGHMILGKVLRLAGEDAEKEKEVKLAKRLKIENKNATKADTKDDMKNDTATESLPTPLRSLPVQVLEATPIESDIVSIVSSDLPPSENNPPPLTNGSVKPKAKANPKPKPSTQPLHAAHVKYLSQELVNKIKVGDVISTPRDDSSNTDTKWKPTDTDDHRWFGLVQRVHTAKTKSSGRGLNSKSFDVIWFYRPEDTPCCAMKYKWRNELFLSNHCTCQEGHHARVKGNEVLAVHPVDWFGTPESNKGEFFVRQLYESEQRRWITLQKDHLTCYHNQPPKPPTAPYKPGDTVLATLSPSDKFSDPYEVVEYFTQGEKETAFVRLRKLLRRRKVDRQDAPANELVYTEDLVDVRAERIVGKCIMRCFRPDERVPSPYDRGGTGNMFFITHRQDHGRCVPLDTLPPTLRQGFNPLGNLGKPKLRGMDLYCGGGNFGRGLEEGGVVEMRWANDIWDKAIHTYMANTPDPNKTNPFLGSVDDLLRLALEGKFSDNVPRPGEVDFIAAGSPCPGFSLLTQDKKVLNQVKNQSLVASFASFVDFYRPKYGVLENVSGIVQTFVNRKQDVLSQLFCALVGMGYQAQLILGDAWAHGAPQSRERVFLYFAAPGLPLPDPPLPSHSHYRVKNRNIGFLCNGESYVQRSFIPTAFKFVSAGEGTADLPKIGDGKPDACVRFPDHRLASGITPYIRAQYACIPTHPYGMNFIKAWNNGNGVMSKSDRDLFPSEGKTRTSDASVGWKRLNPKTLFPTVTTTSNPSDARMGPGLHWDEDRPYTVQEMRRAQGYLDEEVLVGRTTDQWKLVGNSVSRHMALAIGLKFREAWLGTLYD
The assay can be described thus: SEC; analytical SEC, 1.0 µM DIM2 and/or 2.5 µM HP1 on Superdex 200 increase 10/300 GL, 20 mM Tris-HCl pH 7.5, 100 mM NaCl, 5% glycerol, 5 mM DTT; fractions on SDS-PAGE. As to conditions: both partners purified. For orientation: SEC sorts molecules by how far they enter the pores of the column.

Assay [2] has as its target T2, DIM2 (residues 1-1242) L134A/L139A double mutant (Neurospora crassa, UniProt Q3Y3Z1 1-1242, L134A | L139A).
T2 construct: source: E. coli BL21 (DE3) RIL, purified as WT; not shown: His6, N-terminal, cleaved; MBP, N-terminal, cleaved
T2 sequence (looked up): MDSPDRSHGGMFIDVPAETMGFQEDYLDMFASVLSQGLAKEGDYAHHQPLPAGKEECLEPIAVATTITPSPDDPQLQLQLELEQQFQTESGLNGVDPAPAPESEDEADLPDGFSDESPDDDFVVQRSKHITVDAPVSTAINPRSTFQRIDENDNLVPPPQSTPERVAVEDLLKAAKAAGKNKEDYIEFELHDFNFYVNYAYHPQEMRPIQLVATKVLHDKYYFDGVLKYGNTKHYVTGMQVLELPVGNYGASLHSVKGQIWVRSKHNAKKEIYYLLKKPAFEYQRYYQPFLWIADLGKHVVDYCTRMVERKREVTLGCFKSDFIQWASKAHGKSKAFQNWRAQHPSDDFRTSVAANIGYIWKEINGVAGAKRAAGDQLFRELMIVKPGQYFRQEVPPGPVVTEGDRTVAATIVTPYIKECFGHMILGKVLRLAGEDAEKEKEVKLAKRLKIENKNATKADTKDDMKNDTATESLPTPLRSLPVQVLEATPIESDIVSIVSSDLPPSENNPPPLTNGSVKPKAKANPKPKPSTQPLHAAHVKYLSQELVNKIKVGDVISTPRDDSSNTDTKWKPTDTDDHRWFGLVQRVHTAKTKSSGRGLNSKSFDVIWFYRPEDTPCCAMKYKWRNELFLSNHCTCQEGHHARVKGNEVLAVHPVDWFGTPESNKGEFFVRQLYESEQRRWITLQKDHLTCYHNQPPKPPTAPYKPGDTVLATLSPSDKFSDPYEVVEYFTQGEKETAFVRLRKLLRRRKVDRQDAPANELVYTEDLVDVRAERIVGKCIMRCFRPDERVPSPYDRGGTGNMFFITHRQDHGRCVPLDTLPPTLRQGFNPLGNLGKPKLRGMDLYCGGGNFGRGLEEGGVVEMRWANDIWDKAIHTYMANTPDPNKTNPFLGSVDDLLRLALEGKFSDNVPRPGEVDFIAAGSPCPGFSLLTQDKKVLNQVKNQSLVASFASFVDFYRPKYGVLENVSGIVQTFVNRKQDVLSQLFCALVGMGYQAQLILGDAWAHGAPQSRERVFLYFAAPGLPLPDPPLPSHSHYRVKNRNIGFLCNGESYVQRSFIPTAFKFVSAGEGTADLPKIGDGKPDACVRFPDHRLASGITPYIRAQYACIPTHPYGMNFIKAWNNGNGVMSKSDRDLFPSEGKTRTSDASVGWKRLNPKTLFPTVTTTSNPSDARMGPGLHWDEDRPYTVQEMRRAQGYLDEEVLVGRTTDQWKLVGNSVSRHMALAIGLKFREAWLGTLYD
The description is as above. The note with it: both partners purified.

B1: heterochromatin protein 1 (HP1), full length, residues 1-266 (natural protein, Neurospora crassa, UniProt Q1K612 1-266, looked up)
chain: MPYDPSALSDEEAASSVELDTRSATSSSKKQSRDKKSVKYTIPEPEDFEDEEQNGDGADEGGEDDEEGDEEEEDVYVVEKILDHMLNDDNEPLFLVKWEGYEKKSDQTWEPEDTLIEGASERLKEYFTKIGGREKIFEASAAAQKIKKRGRPSSNSGTPQASSNKRSRKNGDHPLNSEEPQTAKNAAWKPPAGSWEEHIAQLDACEDEDTHKLMVYLTWKNGHKTQHTTDVIYKRCPQKMLQFYERHVRIIKRDPDSEDREGSVSQ
notes: HP1, Neurospora crassa, UniProt Q1K612, residues 1-266, synthetic codon-optimised gene; Homodimer through its chromo shadow domains in the cryo-EM structures; only the CSDs (K189-I251, C191-I251) were traced; also called HP1-I; HP1-II; source: E. coli BL21 (DE3) RIL, purified (Ni-NTA, heparin, TEV cleavage, second Ni-NTA, SEC); not shown: His6, N-terminal, cleaved; MBP, N-terminal, cleaved
With B1, the binding result in assay [1] and in assay [2] was “binds” in each case.

For the origin of these results see paper PMC11315935, “Multi-layered heterochromatin interaction as a switch for DIM2-mediated DNA methylation” (Nature Communications, 2024).
